Four molecules from publication PMC10837153, “A structural vista of phosducin-like PhLP2A-chaperonin TRiC cooperation during the ATP-driven folding cycle” (Nature Communications, 2024) can be followed below.

Test [1] addresses human TRiC (TCP-1 ring complex), his-tagged, CCT1 tagged with GFP (human) (UniProt P17987). Nature of the test: cryo-EM structure; TRiC (2 mg/ml) sequentially incubated with PFD and PhLP2A in 1:2:~1, each 20 min at RT, with 1 mM AMP-PNP; 3D-focused classification.
A further test deals with T1, human TRiC subunit CCT3 (human, UniProt P49368 1-545).
T1 construct: TRiC subunit CCT3, human; Subunit of m2, seen only within the TRiC complex; source: High Five insect cells, purified as a subunit of TRiC
T1 sequence: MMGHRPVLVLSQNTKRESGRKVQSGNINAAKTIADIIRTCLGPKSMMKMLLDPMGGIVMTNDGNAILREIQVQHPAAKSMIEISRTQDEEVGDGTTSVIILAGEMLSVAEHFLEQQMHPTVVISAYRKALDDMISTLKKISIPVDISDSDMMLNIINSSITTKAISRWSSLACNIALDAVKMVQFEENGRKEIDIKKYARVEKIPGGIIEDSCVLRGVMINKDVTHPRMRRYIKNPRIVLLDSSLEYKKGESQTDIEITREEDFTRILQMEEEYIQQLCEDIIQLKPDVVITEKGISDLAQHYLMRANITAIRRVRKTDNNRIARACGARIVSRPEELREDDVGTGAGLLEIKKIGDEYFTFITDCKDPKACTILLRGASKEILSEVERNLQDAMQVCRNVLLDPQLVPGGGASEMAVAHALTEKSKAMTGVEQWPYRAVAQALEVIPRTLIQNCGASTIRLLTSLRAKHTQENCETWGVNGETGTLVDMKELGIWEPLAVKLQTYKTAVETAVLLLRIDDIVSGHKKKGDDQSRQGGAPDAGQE
Description: cryo-EM structure; open TRiC (2 mg/ml) with each truncated PhLP2A mutant (TXD, NTD-TXD, TXD-CTD) in 1:2 molar ratio, 20 min at RT. The note with it: both partners purified.

Test [2] deals with human TRiC (TCP-1 ring complex), his-tagged, CCT1 tagged with GFP (human) (UniProt P17987). Description: cryo-EM structure; closed TRiC: TRiC (0.8 mg/ml) with each truncated PhLP2A mutant (TXD, NTD-TXD, TXD-CTD) 1:2 for 20 min, then 1 mM ATP, 6 mM NaF, 10 mM MgCl2, 50 mM KCl, 1 h at RT.
For test [3] the target is unchanged. Nature of the test: cryo-EM structure; open TRiC (2 mg/ml) with each truncated PhLP2A mutant (TXD, NTD-TXD, TXD-CTD) in 1:2 molar ratio, 20 min at RT.
For another test, the target named is T2, human TRiC subunit CCT4 (human, UniProt P50991 1-539).
T2 construct: TRiC subunit CCT4, human; Subunit of m2, seen only within the TRiC complex; source: High Five insect cells, purified as a subunit of TRiC
T2 sequence: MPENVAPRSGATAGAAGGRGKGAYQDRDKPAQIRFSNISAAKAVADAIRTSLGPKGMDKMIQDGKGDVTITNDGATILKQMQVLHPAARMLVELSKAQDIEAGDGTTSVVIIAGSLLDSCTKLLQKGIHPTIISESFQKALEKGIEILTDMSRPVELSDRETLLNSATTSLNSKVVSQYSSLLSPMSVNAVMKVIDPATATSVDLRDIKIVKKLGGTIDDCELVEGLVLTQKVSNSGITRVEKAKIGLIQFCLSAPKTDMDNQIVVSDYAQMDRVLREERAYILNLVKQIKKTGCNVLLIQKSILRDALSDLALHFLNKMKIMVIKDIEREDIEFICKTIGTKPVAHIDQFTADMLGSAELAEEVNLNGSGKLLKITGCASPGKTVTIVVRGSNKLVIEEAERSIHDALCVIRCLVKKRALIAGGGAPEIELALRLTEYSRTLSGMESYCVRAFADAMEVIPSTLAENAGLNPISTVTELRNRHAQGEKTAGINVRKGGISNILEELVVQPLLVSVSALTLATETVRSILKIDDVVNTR
The description is as above. The note with it: both partners purified.

Test [4] concerns the target human TRiC (TCP-1 ring complex), his-tagged, CCT1 tagged with GFP (human) (UniProt P17987). Description: cryo-EM structure; closed TRiC: TRiC (0.8 mg/ml) with PhLP2A 1:4 for 30 min, then 1 mM ATP, 1 mM Al3(NO3)3, 6 mM NaF, 10 mM MgCl2, 50 mM KCl, 1 h at RT.
Test [5] shares this target. Description: native gel or EMSA; native PAGE mobility shift; 0.25 μM open TRiC, PhLP2A 0.01-10 μM, ATPase buffer (30 mM Tris pH 7.4, 120 mM KCl, 5 mM MgCl2, 1 mM DTT), about 30 min at room temperature; apparent Kd; three repetitions. (A gel shift assay detects complexes by their altered migration in electrophoresis.)
For test [6] the target is unchanged. Description: native gel or EMSA; competition: unlabeled PhLP2A (0.01-10 μM) added to GFP-TRiC (0.25 μM) pre-incubated with AF-647 labeled PFD (1 μM); Native PAGE 4-16%, in-gel fluorescence.

The molecule “human Prefoldin (from UniProt O15212 1-129) (complex)” yielded a percent of TRiC particles with PFD bound (3D classification) in test [1] of 25%.

B1: PhLP2A TXD-CTD (aa 85–239), NTD truncation (domain or fragment, human, UniProt Q9H2J4 85-239, looked up)
chain: TKLKNKFGEVLEISGKDYVQEVTKAGEGLWVILHLYKQGIPLCALINQHLSGLARKFPDVKFIKAISTTCIPNYPDRNLPTIFVYLEGDIKAQFIGPLVFGGMNLTRDELEWKLSESGAIMTDLEENPKKPIEDVLLSSVRRSVLMKRDSDSEGD
notes: PhLP2A, human, TXD and CTD, aa 85-239; the 5' primer translates to M-KLKNKFG; also called TXT-C term; source: E. coli BL21 Rosetta2 pLysS, purified (nickel resin, SDX200); not shown: His6 (encoded by the 3' primer), C-terminal, kept
On to B1, for which, in the test with human TRiC subunit CCT3, the binding result is reported as “binds”.

B2: PhLP2A NTD-TXD (aa 1–211), CTD truncation (domain or fragment, human, UniProt Q9H2J4 1-211, looked up)
chain: MQDPNADTEWNDILRKKGILPPKESLKELEEEAEEEQRILQQSVVKTYEDMTLEELEDHEDEFNEEDERAIEMYRRRRLAEWKATKLKNKFGEVLEISGKDYVQEVTKAGEGLWVILHLYKQGIPLCALINQHLSGLARKFPDVKFIKAISTTCIPNYPDRNLPTIFVYLEGDIKAQFIGPLVFGGMNLTRDELEWKLSESGAIMTDLEEN
notes: PhLP2A, human, NTD and TXD, aa 1-211; also called N + TXT fragment; source: E. coli BL21 Rosetta2 pLysS, purified (nickel resin, SDX200); not shown: His6 (encoded by the 3' primer), C-terminal, kept
B2 showed a percent of closed TRiC particles with NTD-TXD density in the chamber in test [2] of 8.25%. Also, in test [3], the percent of TRiC particles with NTD-TXD density in the chamber came to 19.8%. Further, the binding result with human TRiC subunit CCT3 and in the test with human TRiC subunit CCT4 was “binds” each time.

B3: human PhLP2A (phosducin-like protein 2A), full length (natural protein)
chain: MQDPNADTEWNDILRKKGILPPKESLKELEEEAEEEQRILQQSVVKTYEDMTLEELEDHEDEFNEEDERAIEMYRRRRLAEWKATKLKNKFGEVLEISGKDYVQEVTKAGEGLWVILHLYKQGIPLCALINQHLSGLARKFPDVKFIKAISTTCIPNYPDRNLPTIFVYLEGDIKAQFIGPLVFGGMNLTRDELEWKLSESGAIMTDLEENPKKPIEDVLLSSVRRSVLMKRDSDSEGD
modifications: AF-568 (Alexa568) label, site not stated, only in the native PAGE mobility shift and competition assays
Regarding B3, the percent of TRiC particles with PhLP2A bound (3D classification) in test [1] amounted to 22.9%. In addition, in test [4], the percent of closed TRiC particles with PhLP2A in both chambers worked out at 9.5% and the percent of closed TRiC particles with PhLP2A in one chamber came to 14%. For the same molecule, the Kd in test [5] was 170 nM. In test [6], this molecule registered a percent of TRiC-bound PFD displaced of under 70%.
